This note sets out measurements from patent publication US20230087785A1, “Leucine-Rich Repeat Kinase 2 Allosteric Modulators” (VIB VZW, priority 2020, published 2023).

For experiment [1], the target named is T1, Full-length human Leucine-rich repeat kinase 2 (LRRK2), N-terminal Strep/Flag (SF) tagged (human, UniProt Q5S007 1-2527). The experiment in a line: cell-based or functional assay.
For experiment [2], the target named is T1, Full-length human Leucine-rich repeat …. Put plainly: MST; LRRK2 titrated to m-TAMRA-labelled Nb, 500 µM GDP. As to the method: (§1) Microscale thermophoresis (MST) experiments were performed for determining equilibrium binding affinities (KD) of Nbs binding to FL-LRRK2. Therefore, Nb were site-specifically labelled at their C-terminus with m-TAMRA, using Sortase-mediated peptide exchange. The Nbs were recloned into a pHEN29 vector which is subsequently used to express and purify the Nbs with a C-terminal LPETGG-His₆-EPEA tag. Exchange of the latter peptide with an m-TAMRA-labeled GGGYK peptide (GenicBio, Shanghai, China) was performed using Sortase, and unlabeled Nb and unincorporated peptide were removed using a Ni-NTA and SEC purification step, respectively. […] After incubation at 4° C. for 30 mins, samples were loaded in capillaries and measurements were performed at 25° C. using 50-70% LED power and 80% laser intensity (laser on-time: 30 s, laser off-time: 5 s). All experiments were performed in triplicate.

The target in experiment [3] is T2, LRRK2 Roc domain construct (human, UniProt Q5S007 1329-1520).
T2 construct: not shown: N-terminal His6-tag of pET-28a
T2 sequence: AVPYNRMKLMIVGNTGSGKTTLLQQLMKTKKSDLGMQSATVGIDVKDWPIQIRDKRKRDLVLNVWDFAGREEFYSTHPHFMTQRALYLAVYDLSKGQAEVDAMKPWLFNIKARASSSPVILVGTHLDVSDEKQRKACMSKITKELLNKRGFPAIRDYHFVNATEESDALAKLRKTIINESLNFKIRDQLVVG
Put plainly: ELISA, antigen coated on the plate, purified Nb detected via its EPEA tag. An outline of the steps: (§2)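 The RocCOR, Roc, COR-B and kinase-WD40 constructs were coated side by side on one ELISA plate. Binding of each purified nanobody to every coated construct was then detected.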
For orientation: In an ELISA, binding on a coated surface is turned into a signal by an enzyme label.

The target of experiment [4] is T3, LRRK2 kinase-WD40 domain construct (human, UniProt Q5S007 1876-2527).
T3 construct: also called K-WD40; not shown: N-terminal His-tag (pFastBac)
T3 sequence: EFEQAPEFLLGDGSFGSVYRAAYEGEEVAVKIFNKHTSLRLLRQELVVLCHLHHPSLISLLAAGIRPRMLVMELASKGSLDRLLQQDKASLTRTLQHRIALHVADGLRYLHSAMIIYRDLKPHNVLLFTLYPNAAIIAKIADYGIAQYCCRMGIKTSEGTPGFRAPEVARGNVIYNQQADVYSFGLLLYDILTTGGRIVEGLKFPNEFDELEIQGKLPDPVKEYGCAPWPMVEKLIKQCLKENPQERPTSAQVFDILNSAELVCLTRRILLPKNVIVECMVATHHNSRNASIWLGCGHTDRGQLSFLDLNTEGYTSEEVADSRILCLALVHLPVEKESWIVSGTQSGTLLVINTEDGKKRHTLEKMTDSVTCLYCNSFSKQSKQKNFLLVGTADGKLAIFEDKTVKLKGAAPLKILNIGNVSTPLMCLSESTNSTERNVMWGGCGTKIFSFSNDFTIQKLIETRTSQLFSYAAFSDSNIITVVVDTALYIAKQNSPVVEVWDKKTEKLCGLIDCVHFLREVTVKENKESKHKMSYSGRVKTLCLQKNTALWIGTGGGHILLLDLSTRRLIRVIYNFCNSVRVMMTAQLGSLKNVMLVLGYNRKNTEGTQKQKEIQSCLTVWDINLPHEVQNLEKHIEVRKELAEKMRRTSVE
Described as above. An outline of the steps: as §2

Experiment [5] has as its target T1, Full-length human Leucine-rich repeat …. Put plainly: BLI; Nb on LRRK2 trapped on streptavidin sensor via biotinylated Nb40; steady-state fit. As to the method: (§3) To determine the binding affinity (dissociation constant KD) of the ten Nbs for LRRK2, two methods were used in parallel: microscale thermophoresis (MST) and bio-layer interferometry (BLI). For the MST experiment, we site-specifically labeled the ten Nbs with a m-TAM RA fluorophore at its C-terminus, using sortase-mediated coupling, and then titrated increasing amounts of full-length LRRK2 to these Nbs (FIGS. 13A-13E).
(§4) Biolayer interferometry (BLI) measurements were performed using an Octet Red96 (Forte Bio, Inc.) system in a buffer containing 50 mM HEPES pH 8.0, 150 mM NaCl, 10 mM MgCl₂, 5% glycerol, 0.1% BSA, 0.05% Tween, at 25° C. and with shaking speed 1000 rpm. […] The biotinylated Nbs were first loaded on pre-equilibrated SA biosensors at a concentration of 5 μg/mL. This Nb-loaded sensor was then used to trap FL-LRRK2 from a 50 nM LRRK2 solution. […] All experiments were performed in triplicate.
(In general: Biolayer interferometry detects binding as a change in optical thickness at a sensor tip.)

Experiment [6] has the same target. Put plainly: ELISA titration on coated LRRK2, Nb detected via its C-terminal EPEA tag, A405 read at 10 h. As to the method: (§5) LRRK2 was coated in the wells of the ELISA plate and the ELISA signal for a dilution series of the respective Nbs (detected via their C-terminal EPEA-tag) is plotted in function of the Nb concentration. […] A “no antigen control”, where no LRRK2 was coated on the bottom of the well, is also included.
(§6) Detection of Nb binding was performed using the C-terminal EPEA tag of the Nbs as described before, resulting in a dose response titration curve reflecting an apparent affinity of the Nbs. […] A “no antigen control”, where no LRRK2 was coated on the bottom of the well, was also included.

For experiment [7] the target is unchanged. Put plainly: kinase kinetics (PhosphoSens, varied ATP), global fit to mixed inhibition; ATP-bound LRRK2; enzyme kinetics, mixed inhibition fit; ATP-bound LRRK2. As to the method:
(§7) Full Michaelis-Menten curves (relative velocity versus [ATP]) in presence of different Nb concentrations were collected at 30° C. in a buffer consisting of 50 mM HEPES pH 7.5, 0.1% Brij-35, 50 mM NaCl, 10 mM MgCl₂ and […], using a fixed concentration of AQT0615 (10 μM) and varying concentrations of ATP. The LRRK2 concentration was chosen such that initial rates (linear fluorescence versus time curves) were obtained, and LRRK2, ATP and the Nbs were preincubated at 4° C. for 30 min prior to starting the reaction by adding the peptide substrate. The Michaelis-Menten curves for the different Nb concentrations were globally fit on a mixed-inhibition model using GraphPad Prism, according to the equation: […]

For experiment [8] the target is unchanged. The experiment in a line: kinase kinetics (PhosphoSens, varied ATP), global fit to mixed inhibition; affinity for apo-LRRK2; enzyme kinetics, mixed inhibition fit; apo-LRRK2. The procedure:
as §7

The target in experiment [9] is T4, LRRK2 RocCOR domain construct (human, UniProt Q5S007 1334-1840).
T4 construct: A second construct (residues 1293-1840, N-terminal His6-MBP) was used in certain screening experiments; not shown: N-terminal Twin-Strep-tag; C-terminal His10-tag
T4 sequence: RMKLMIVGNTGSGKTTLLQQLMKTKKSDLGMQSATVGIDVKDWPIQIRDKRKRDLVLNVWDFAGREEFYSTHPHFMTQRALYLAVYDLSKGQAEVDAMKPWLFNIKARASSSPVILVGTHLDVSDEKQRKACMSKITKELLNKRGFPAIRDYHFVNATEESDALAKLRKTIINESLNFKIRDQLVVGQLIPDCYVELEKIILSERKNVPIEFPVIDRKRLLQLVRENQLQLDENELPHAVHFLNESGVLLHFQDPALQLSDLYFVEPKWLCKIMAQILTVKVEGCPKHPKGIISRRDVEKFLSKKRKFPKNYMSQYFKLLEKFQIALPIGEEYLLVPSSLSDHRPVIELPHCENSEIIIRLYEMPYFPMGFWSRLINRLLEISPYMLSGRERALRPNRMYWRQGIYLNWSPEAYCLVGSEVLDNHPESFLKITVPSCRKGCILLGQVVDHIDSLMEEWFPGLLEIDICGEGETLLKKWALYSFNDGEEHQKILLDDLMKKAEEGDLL
Put plainly: ELISA, antigen coated on the plate, purified Nb detected via its EPEA tag. The procedure, abridged: as §2

In experiment [10] the target is T5, LRRK2 COR-B construct (C-terminal part of the COR domain), His6-MBP tagged (human, UniProt Q5S007 1672-1840).
T5 construct: also called (MBP-)COR-B; not shown: N-terminal His6-MBP-tag of pDEST-566
The description is as above. An outline of the steps: as §2

Experiment [11] deals with T1, Full-length human Leucine-rich repeat …. The experiment in a line: BLI; Nb on LRRK2 trapped on streptavidin sensor via biotinylated Nb42; steady-state fit. The procedure:
as §3, §4

Experiment [12] shares this target. The experiment in a line: MST; LRRK2 titrated to m-TAMRA-labelled Nb, in presence of GTPγS instead of GDP; MST in presence of GTPγS instead of GDP. The procedure:
as §1

Experiment [13] shares this target. Put plainly: ELISA titration on coated LRRK2, Nb detected via its C-terminal EPEA tag, A405 read at 0.5 h. As to the method: as §5, §6

B1: Nb1 (CA12610) (VHH)
VHH: QVQLVESGGGLVQAGGSLRLSCVASGRIFSGNAMGWYRQAPGRQRELVAGITNGGYTNYRQFVKGRFTISRDNAKRTVYLQMNSLKPEDTAVYYCNALDREARQVDYWGQGTQVTVSS
Take B1: in experiment [1], the “IC50 of in vitro LRRK2 kinase activity (AQT0615 peptide, PhosphoSens, 1 mM ATP)” value came to 8000 nM. Moreover, the Kd came out at 91 nM in experiment [2] and 114 nM in experiment [5]. The binding result in [3] and in experiment [4] was “no binding (tested: not given)” each time. Further, in experiment [6], the “EC50 (read off the curve)” value was approximately 10 nM. Moreover, the Ki in experiment [7] worked out at 30000 nM; in experiment [8], 16000 nM.

B2: Nb40 (CA14135) (VHH)
VHH: QVQLVESGGGLVQPGGSLRLSCVASGTIYAINRMGWYRQAPGKQRELVALITLGGGTNYGDSVKGRFTISRDNAKNTGYLQMNSLKPEDTAVYYCKVESSGYTDVFWGQGTQVTVSS
notes: biotinylated form used as trapping agent in BLI
For B2, the values for the equilibrium dissociation constant (Kd) in [2] and in experiment [11] were 26 nM and 41 nM, respectively. Moreover, the binding result in experiment [9], in [3] and in [10] was “no binding (tested: not given)” throughout.

B3: Nb42 (CA14259) (VHH)
VHH: QVQLVESGGGLVQAGGSLRLSCAASGDVNYAVGWFRQAPRKEREFVAAINWRGDNTDYTDSVKGRFTISRDNAKNTVYLQMNSLKPEDTAVYYCAAKSAPYWYSDIAPDYWGQGTQVTVSS
notes: biotinylated form used as trapping agent in BLI of Nb40
For B3, the binding result in [9], in [10] and in [4] was “no binding (tested: not given)” each time. Moreover, the values for the Kd in experiment [5] and in [12] were 82 nM and 94 nM, respectively.

B4: Nb6 (CA12618) (VHH)
VHH: QVQLVESGGGLVQAGGSLRLSCAASGSIFSPTAMGWYRQAPGKERELVAGITSGGYTNYRNFARGRFTISRDNAKKTVYLQMNSLNPEDTAVYYCNTLTISWSWGQGTQVTVSS
Turning to B4, in [1], the “IC50 of in vitro LRRK2 kinase activity (AQT0615 peptide, PhosphoSens, 1 mM ATP)” value was determined as 14000 nM. Besides, the Kd came to 83 nM in experiment [2] and 7 nM in experiment [5]. The binding result in experiment [3] and in experiment [4] was “no binding (tested: not given)” throughout. The “EC50 (read off the curve)” value in experiment [13] is approximately 5 nM. For the same molecule, the results for the Ki in experiment [7] and in experiment [8] were 8000 nM and 5000 nM, respectively.

For orientation: Kd means the equilibrium constant for the complex coming apart. A word on the EC50 (read off the curve): it is the midpoint of the concentration-response curve. As a reminder, the Ki is the equilibrium dissociation constant of an inhibitor or competing ligand from its target.
